In patent publication US20050227220A1, “Compositions and Methods for Evaluating and Designing Nuclear Receptor Ligands that Modulate Co-Regulator Affinity” (priority 2002, published 2005):
No end group written: not given here. fluorescein = fluorescein: fluorescein label attached at the N-terminus of the peptide

B1: Fluoroscein-NCOR ID-C peptide (NCoR amino acids 2251-2275) (peptide)
peptide: fluorescein-GHSFADPASNLGLEDIIRKALMGSF
notes: also called NCOR peptide; NCoR 2251-2275
B2: human PPARγ ligand binding domain (amino acids 206-477) (receptor)
chain: MKKGHHHHHHGPESADLRALAKHLYDSYIKSFPLTKAKARAILTGKTTDKSPFVIYDMNSLMMGEDKIKFKHITPLQEQSKEVAIRIFQGCQFRSVEAVQEITEYAKSIPGFVNLDLNDQVTLLKYGVHEIIYTMLASLMNKDGVLISEGQGFMTREFLKSLRKPFGDFMEPKFEFAVKFNALELDDSDLAIFIAVIILSGDRPGLLNVKPIEDIQDNLLQALELQLKLNHPESSQLFAKLLQKMTDLRQIVTEHVQLLQVIKKTETDMSLHPLLQEIYKDLY
notes: range 206-477; placed at the N-terminus here; Biotinylated for FRET; also called PPARγ LBD
B3: human PPARδ ligand binding domain (amino acids 139-441) (receptor)
chain: MKKGHHHHHHGSHNAIRFGRMPEAEKRKLVAGLTANEGSQYNPQVADLKAFSKHIYNAYLKNFNMTKKKARSILTGKASHTAPFVIHDIETLWQAEKGLVWKQLVNGLPPYKEISVHVFYRCQCTTVETVRELTEFAKSIPSFSSLFLNDQVTLLKYGVHEAIFAMLASIVNKDGLLVANGSGFVTREFLRSLRKPFSDIIEPKFEFAVKFNALELDDSDLALFIAAIILCGDRPGLMNVPRVEAIQDTILRALEFHLQANHPDAQYLFPKLLQKMADLRQLVTEHAQMMQRIKKTETETSLHPLLQEIYKDMY
modifications: Biotinylated (site not stated) in the FRET assays; unlabelled in fluorescence polarization and SPR.
notes: placed at the N-terminus here; Biotinylated for FRET; also called PPARδ LBD
B4: RXRα ligand binding domain (amino acids 225-462) (receptor, UniProt P19793 225-462, looked up)
chain: SANEDMPVERILEAELAVEPKTETYVEANMGLNPSSPNDPVTNICQAADKQLFTLVEWAKRIPHFSELPLDDQVILLRAGWNELLIASFSHRSIAVKDGILLATGLHVHRNSAHSAGVGAIFDRVLTELVSKMRDMQMDKTELGCLRAIVLFNPDSKGLSNPAEVEALREKVYASLEAYCKHKYPEQPGRFAKLLLRLPALRSIGLKCLEHLFFFKLIGDTPIDTFLMEMLEAPHQMT
notes: range 225-462; Biotinylated for FRET; also called RXRα LBD; not shown: His-tag

What was measured:
[1] = target: B2; experiment: fluorescence polarization, apparent affinity, with rosiglitazone
[2] = target: B3; experiment: as above
[3] = target: B2; experiment: fluorescence polarization, apparent affinity, with GW1929
[4] = target: B3; experiment: as above
[5] = target: T1, TRβ ligand binding domain (UniProt P10828 202-461, limits assumed); experiment: fluorescence polarization, apparent affinity, with T3
T1 construct: also called Thyroid Receptor LBD; TRβ LBD
T1 sequence (looked up): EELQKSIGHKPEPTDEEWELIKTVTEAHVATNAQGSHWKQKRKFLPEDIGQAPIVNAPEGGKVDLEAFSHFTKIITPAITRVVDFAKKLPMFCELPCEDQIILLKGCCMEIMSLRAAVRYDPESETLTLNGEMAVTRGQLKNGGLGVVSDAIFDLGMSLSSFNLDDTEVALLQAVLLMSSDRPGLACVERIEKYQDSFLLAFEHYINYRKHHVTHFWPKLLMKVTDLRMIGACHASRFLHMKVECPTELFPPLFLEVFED

[6] = target: B2; experiment: fluorescence polarization, apparent affinity, no ligand
[7] = target: T1, TRβ ligand binding domain; experiment: as above
[8] = target: T2, ERβ ligand binding domain (amino acids 257-530) (UniProt Q92731 257-530); experiment: fluorescence polarization, 10 nM fluorescein peptide, LBD titrated, no ligand
T2 construct: range 257-530; not shown: His-tag

[9] = target: T3, human PPARα ligand binding domain (amino acids 192-468) (human, UniProt Q07869 192-468); experiment: as above
T3 construct: range 192-468; placed at the N-terminus here; Biotinylated for FRET; also called PPARα LBD
T3 sequence: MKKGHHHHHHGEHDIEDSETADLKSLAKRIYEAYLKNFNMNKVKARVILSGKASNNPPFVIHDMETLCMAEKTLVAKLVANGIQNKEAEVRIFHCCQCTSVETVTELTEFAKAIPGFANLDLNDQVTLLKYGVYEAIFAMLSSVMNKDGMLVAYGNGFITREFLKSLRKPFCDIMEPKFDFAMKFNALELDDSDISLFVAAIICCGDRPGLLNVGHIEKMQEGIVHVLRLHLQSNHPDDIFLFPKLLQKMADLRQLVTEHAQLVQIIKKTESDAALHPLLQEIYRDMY

[10] = target: B2; experiment: as above
[11] = target: B3; experiment: as above
[12] = target: B4; experiment: as above
[13] = target: T4, RARα ligand binding domain (amino acids 146-432) (UniProt P10276 146-432); experiment: as above
T4 construct: range 146-432; not shown: His-tag
T4 sequence (looked up): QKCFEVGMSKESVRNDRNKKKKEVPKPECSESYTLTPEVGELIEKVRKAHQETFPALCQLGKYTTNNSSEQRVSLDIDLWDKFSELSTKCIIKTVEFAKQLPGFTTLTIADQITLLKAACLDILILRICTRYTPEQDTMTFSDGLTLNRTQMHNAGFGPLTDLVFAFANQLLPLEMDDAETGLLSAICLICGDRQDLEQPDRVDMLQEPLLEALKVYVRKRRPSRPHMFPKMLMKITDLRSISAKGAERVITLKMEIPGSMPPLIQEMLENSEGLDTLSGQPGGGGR

[14] = target: T1, TRβ ligand binding domain; experiment: as above
[15] = target: B1; experiment: fluorescence polarization, with rosiglitazone
[16] = target: T5, TRAP220 peptide (amino acids 575-599) (not fully specified; printed as N-terminal biotin in Example 1; label in the polarization assay not specified); experiment: fluorescence polarization, with rosiglitazone
T5 construct: also called TRAP220 575-599
T5 peptide: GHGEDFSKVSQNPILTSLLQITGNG

[17] = target: B1; experiment: fluorescence polarization, with GW1929
[18] = target: T5, TRAP220 peptide (amino acids 575-599); experiment: fluorescence polarization, with GW1929
[19] = target: T6, biotin-NCOR ID-C peptide (NCoR amino acids 2251-2275) (N-terminal biotin); experiment: FRET, with GW1929
T6 construct: also called NCOR-derived co-repressor peptide
T6 peptide: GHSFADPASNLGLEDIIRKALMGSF

[20] = target: T6, biotin-NCOR ID-C peptide (NCoR amino …); experiment: FRET, with GW7845
[21] = target: T3, human PPARα ligand binding domain …; experiment: FRET, biotinylated PPAR LBD and RXRα LBD on labelled streptavidin
[22] = target: B2; experiment: as above
[23] = target: B3; experiment: as above
GAL4-NcoR (1944-end) = target: T7, GAL4-NcoR (1944-end) (UniProt P04386 1-147; O75376 1944-2440); experiment: mammalian two-hybrid in CV-1 cells
T7 construct: range 1-147;range 1944-end; Two-hybrid construct; also called larger fragment of NCoR (1944-end)

T2 sequence (Q92731 257-530 limits assumed): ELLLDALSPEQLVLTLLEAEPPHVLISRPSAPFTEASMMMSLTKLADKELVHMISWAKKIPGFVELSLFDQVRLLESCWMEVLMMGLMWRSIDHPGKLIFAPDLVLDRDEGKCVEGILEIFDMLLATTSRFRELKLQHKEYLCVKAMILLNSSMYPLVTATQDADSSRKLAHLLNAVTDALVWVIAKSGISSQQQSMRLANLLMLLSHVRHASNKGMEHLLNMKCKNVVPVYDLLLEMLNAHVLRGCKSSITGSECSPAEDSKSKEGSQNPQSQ

Binder: B1
- Kd [1]: 4.7 µM
- Kd [2]: 5 µM
- Kd [3]: 6.7 µM
- Kd [4]: 0.44 µM
- Kd [5]: 6.2 µM
- Kd [6]: 1.2 µM
- Kd [7]: 0.72 µM
- Kd [8]: 37 µM
- Kd [9]: 6.1 µM
- Kd [10]: 1.3 µM
- Kd [11]: 5.7 µM
- Kd [12]: 25 µM
- Kd [13]: 2 µM
- Kd [14]: 1.3 µM

Binder: B2
- fold decrease in affinity with rosiglitazone against no ligand [15]: ~4 fold
- fold increase in affinity with rosiglitazone against no ligand [16]: ~3 fold
- fold decrease in affinity with GW1929 against no ligand [17]: 5 fold
- fold increase in affinity with GW1929 against no ligand [18]: 5 fold

Binder: B3
- log α (ratio of cofactor affinities with and without saturating ligand) [19]: 0.52
- log α (ratio of cofactor affinities with and without saturating ligand) [20]: 0.14
- fold increase in affinity with GW1929 against no ligand [17]: 12 fold

Binder: B4
- binding result [21]: binds
- binding result [22]: binds
- binding result [23]: binds

B5: VP16-human PPARα (full length) (other)
chain: LSTAPPTDVSLGDELHLDGEDVAMAHADALDDFDLDMLGDGDSPGPGFTPHDSAPYGALDMADFEFEQMFTDALGIDEYGGMVDTESPLCPLSPLEAGDLESPLSEEFLQEMGNIQEISQSIGEDSSGSFGFTEYQYLGSCPGSDGSVITDTLSPASSPSSVTYPVVPGSVDESPSGALNIECRICGDKASGYHYGVHACEGCKGFFRRTIRLKLVYDKCDRSCKIQKKNRNKCQYCRFHKCLSVGMSHNAIRFGRMPRSEKAKLKAEILTCEHDIEDSETADLKSLAKRIYEAYLKNFNMNKVKARVILSGKASNNPPFVIHDMETLCMAEKTLVAKLVANGIQNKEAEVRIFHCCQCTSVETVTELTEFAKAIPGFANLDLNDQVTLLKYGVYEAIFAMLSSVMNKDGMLVAYGNGFITREFLKSLRKPFCDIMEPKFDFAMKFNALELDDSDISLFVAAIICCGDRPGLLNVGHIEKMQEGIVHVLRLHLQSNHPDDIFLFPKLLQKMADLRQLVTEHAQLVQIIKKTESDAALHPLLQEIYRDMY
notes: also called VP16 full length PPARα
- binding result (GAL4-NcoR (1944-end)): binds
